In patent US7728193B2, “Phytochrome-interacting protein and a use thereof” (Genomine Inc., priority 2004, dated 2010):

Experiments:
[1] = target: T1, GST-PAPP5 (Arabidopsis thaliana, UniProt Q84XU2); experiment: In vitro phosphatase assay of GST-PAPP5 with ρNPP as substrate: effect of arachidonic acid and okadaic acid; format: biochemical
T1 sequence (Q84XU2 1-484 isoform Q84XU2-2): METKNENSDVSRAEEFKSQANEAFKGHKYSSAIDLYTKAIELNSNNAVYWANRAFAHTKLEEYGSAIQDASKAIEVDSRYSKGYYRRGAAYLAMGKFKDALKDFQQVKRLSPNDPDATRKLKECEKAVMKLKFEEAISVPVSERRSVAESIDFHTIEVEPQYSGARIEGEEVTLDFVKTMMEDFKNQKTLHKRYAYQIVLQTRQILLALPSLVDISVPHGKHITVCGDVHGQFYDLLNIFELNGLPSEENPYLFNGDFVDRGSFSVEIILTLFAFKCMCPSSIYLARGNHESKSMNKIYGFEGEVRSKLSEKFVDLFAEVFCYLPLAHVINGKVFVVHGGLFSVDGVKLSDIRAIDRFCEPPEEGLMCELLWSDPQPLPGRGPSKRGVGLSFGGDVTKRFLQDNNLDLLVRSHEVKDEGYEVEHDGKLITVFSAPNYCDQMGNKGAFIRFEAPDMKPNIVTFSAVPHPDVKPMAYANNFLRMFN
Procedure: In order to examine whether the inventive PAPP5 protein has enzymatic activity, an enzymatic assay was performed using […] ρ-nitrophenyl phosphate (ρNPP) as a substrate. First, the GST-PAPP5 fusion protein purified in Example <4-1> was prewarmed at 30° C. for 1 minute. The prewarmed enzyme solution was added to 100 μl of kinase/phosphatase (KP) buffer (20 mM Tris-HCl pH 7.5, 30 mM MgCl2, 1 mM EDTA, 1 mM EGTA, 0.1% β-mercaptoethanol, 0.1% ethanol) containing O-400 mM ρNPP to initiate a reaction. […] . After reaction at 30° C. for 15 minutes, 900 μl of 0.25N NaOH was added to terminate the reaction. The absorbance at 410 nm was measured. After subtracting the absorbance value of the control reaction solution containing all the components except for the enzyme from that of the reaction solution containing the enzyme, the rate was calculated using a millimolar extinction coefficient (17.8) of ρ-nitrophenolate ions.
In order to confirm if the phosphatase activity of the inventive PAPP5 protein is activated by arachidonic acid, 0-300 μM arachidonic acid was added to a reaction mixture in the presence of 100 mM ρNPP, and the enzymatic activity was measured according to the same method as Example <6-1>.
Thus, the inhibitory effect of okadaic acid on the phosphatase activity of GST-PAPP5 was examined. As a result, the IC50 of okadaic acid, at which the enzyme activity is inhibited by 50%, was 5 nM (data not shown).
(§1) Thus, in order to confirm if PAPP5 also have this property, the present inventors examined the phosphatase activities of GST-PAPP5, GST-TPR and GST-PP2Ac in the same manner as in Example <6-1>. At this time, the concentration of ρNPP was 100 mM.

[2] = system: autophosphorylated oat phytochrome A; experiment: Dephosphorylation of autophosphorylated phytochrome by PAPP5 in vitro; format: biochemical; conditions: 1 μg fusion protein, 30 minutes
Procedure: First, KP buffer (20 mM Tris-HCl pH7.5, 30 mM MgCl2, 1 mM EDTA, 1 mM EGTA, 0.1% β-mercaptoethanol, 0.1% ethanol) containing 1 μg of purified oat phytochrome A (provided from Kumho Life and Environmental Science Laboratory, Korea) was set on ice and irradiated with Rc light output of 50 μmolS^−1m^−2 at 664 nm for 5 minutes. Then, the reaction solution was allowed to react with [γ-^32P]ATP in dark conditions for 30 minutes (autophosphorylation of phytochrome A). Following addition of 1 μg of each of the fusion proteins GST-PAPP5, GST-TPR and GST-PP2Ac prepared in Examples <4-1> and <5-1>, the reaction continued for more 30 minutes, and then stopped by adding 12 μl of 5× Tris-glycine SDS sample buffer under dim green safe light.
Next, the present inventors investigated whether the phosphatase activity of PAPP5 depends on a change in the spectroscopic structure (photoconversion) of phytochrome molecules (Pr⇄Pfr). KP buffer solution containing phytochrome was set on ice and irradiated with a Rc light output of 50 μmolS^−1m^−2 at 664 nm (conversion of phytochrome into Pfr form) or a FRc light output of 50 μmolS^−1m^−2 at 748 nm (conversion of phytochrome into […]) for 5 minutes. Then, the autophosphylation/dephosphorylation test of phytochrome was performed in the same manner as described above.

[3] = target: autophosphorylated oat Pfr phytochrome A (oat)
[4] = system: phytochromes; experiment: Quantitative yeast two-hybrid assay (β-galactosidase activity); format: cell-based, Arabidopsis thaliana; conditions: PHYA or PHYB bait, EGY48 yeast
Procedure: In order to quantitatively assay the interaction between the TPR domain of PAPP5 and phytochromes, each of recombinant vectors (preys) for the TPR domain of PAPP5 and for the PP2A catalytic domain of PAPP5 were prepared, respectively.
A PHYA gene or a PHYB gene was prepared by performing PCR according to the same method as in Example <4-2>, and inserted into a pGilda vector. The recombinant vector was used as a bait. The prepared bait or prey was co-introduced into an EGY48 yeast strain together with a pSH18-34 reporter plasmid. The transformed strain was cultured until the OD600 value reached about 0.7. The cultured cells were washed one time with Z-buffer solution (60 mM Na2HPO4, 40 mM NaH2PO4, 10 mM KCl, 1 mM MgSO4, pH 7.0), and then re-suspended in the solution. Thereafter, the solution was frozen with liquid N2. The frozen solution was dissolved, to which β-mercaptoethanol and ONPG (o-nitrophenyl-β-D-galactopyranoside) were then added at final concentrations of 0.2% and 0.67 mg/ml, respectively. The dissolved solution was allowed to react for 30 minutes at 37° C. Next, Na2CO3 was added to the solution at a final concentration of 0.3 M to terminate the reaction. The absorbance at […] was measured, and the β-galactosidase activity was determined in Miller units (Miller, J. H. Experiments in Molecular Genetics (Cold Spring Harbor Laboratory, Cold Spring harbor, N.Y., 1972)).

[5] = In vitro phosphatase assay: enzymatic activity of PAPP5 and its domain fragments on ρNPP; format: biochemical; conditions: 100 mM ρNPP; regardless of the addition of arachidonic acid
Procedure: In order to examine whether the inventive PAPP5 protein has enzymatic activity, an enzymatic assay was performed using […] ρ-nitrophenyl phosphate (ρNPP) as a substrate. First, the GST-PAPP5 fusion protein purified in Example <4-1> was prewarmed at 30° C. for 1 minute. The prewarmed enzyme solution was added to 100 μl of kinase/phosphatase (KP) buffer (20 mM Tris-HCl pH 7.5, 30 mM MgCl2, 1 mM EDTA, 1 mM EGTA, 0.1% β-mercaptoethanol, 0.1% ethanol) containing O-400 mM ρNPP to initiate a reaction. To examine the autohydrolysis of ρNPP at each substrate concentration, the GST-PAPP5 enzyme solution was not added to a control group. After reaction at 30° C. for 15 minutes, 900 μl of 0.25N NaOH was added to terminate the reaction. The absorbance at 410 nm was measured. After subtracting the absorbance value of the control reaction solution containing all the components except for the enzyme from that of the reaction solution containing the enzyme, the rate was calculated using a millimolar extinction coefficient (17.8) of ρ-nitrophenolate ions.
as §1

[6] = system: phytochrome molecules; experiment: Pull-down assay with PAPP5 domain fragments; format: binding, Arabidopsis thaliana
Procedure: Thereafter, according to the same method as in Example <4-1>, an in vitro assay was performed on each of the proteins which have been expressed and purified in E. coli.

In the case of `CCCCC/C=C\C/C=C\C/C=C\C/C=C\CCCC(=O)O` [arachidonic acid], the “arachidonic acid concentration at which activity of GST-PAPP5 reached the stationary phase” value ([1]; 0-300 μM arachidonic acid, 100 mM ρNPP) is reported as “above 100 μM” and the “increase of phosphatase activity of GST-PAPP5 by arachidonic acid” value ([1]; 100 mM ρNPP) is reported as “about five times increased”.

In the case of “GST-PAPP5: a fusion protein of GST and full-length PAPP5”, the “dephosphorylation of autophosphorylated oat Pfr phytochrome A” value [2] is reported as “about 80%”.

With `C=C1[C@@H](O)[C@@H]2O[C@]3(CC[C@H](/C=C/[C@@H](C)[C@@H]4CC(C)=C[C@@]5(O[C@H](C[C@@](C)(O)C(=O)O)CC[C@H]5O)O4)O3)CC[C@H]2O[C@@H]1[C@@H](O)C[C@H](C)[C@H]1O[C@@]2(CCCCO2)CC[C@H]1C` [okadaic acid] the IC50 ([1]; phosphatase activity of GST-PAPP5, data not shown, read-out: IC50 of okadaic acid, at which the enzyme activity is inhibited by 50%) was 5 nM.

Work on GST-PAPP5 fusion protein (enzyme) yielded a dephosphorylation of autophosphorylated phytochrome A (autoradiography after SDS-PAGE) [3] of 80%.

B1: B42-PP2Ac: TPR domain-deleted PP2A catalytic domain of PAPP5 as yeast two-hybrid prey (protein)
chain: SVPVSERRSVAESIDFHTIEVEPQYSGARIEGEEVTLDFVKTMMEDFKNQKTLHKRYAYQIVLQTRQILLALPSLVDISVPHGKHITVCGDVHGQFYDLLNIFELNGLPSEENPYLFNGDFVDRGSFSVEIILTLFAFKCMCPSSIYLARGNHESKSMNKIYGFEGEVRSKLSEKFVDLFAEVFCYLPLAHVINGKVFVVHGGLFSVDGVKLSDIRAIDRFCEPPEEGLMCELLWSDPQPLPGRGPSKRGVGLSFGGDVTKRFLQDNNLDLLVRSHEVKDEGYEVEHDGKLITVFSAPNYCDQMGNKGAFIRFEAPDMKPNIVTFSAVPHPDVKPMAYANNFLRMFN
In the case of B1, the “activity of interaction with phytochromes (β-galactosidase activity)” value [4] is reported as “remarkable reduction”.

B2: GST-PP2Ac: fusion of GST and PP2A catalytic domain of PAPP5 with a deletion of amino acids 1-138 in SEQ ID NO: 4 (protein)
chain: B1 chain
For B2, the “phosphatase activity relative to GST-PAPP5 with no arachidonic acid” value [5] was “five times higher activity” and the “level of dephosphorylation of autophosphorylated oat Pfr phytochrome A (in words)” value [2] was “very low”.

B3: GST-TPR: fusion protein of GST and TPR domain of PAPP5, amino acids 1-138 of SEQ ID NO: 4 (protein)
chain: METKNENSDVSRAEEFKSQANEAFKGHKYSSAIDLYTKAIELNSNNAVYWANRAFAHTKLEEYGSAIQDASKAIEVDSRYSKGYYRRGAAYLAMGKFKDALKDFQQVKRLSPNDPDATRKLKECEKAVMKLKFEEAIS
With B3 the “level of dephosphorylation of autophosphorylated oat Pfr phytochrome A (in words)” value [2] was “do not affect the phosphorylation status” and the “ability to interact with phytochrome molecules (pull-down)” value [6] was “has the ability to interact”.
